Reference: paper PMC2115640

Biological target: TX-100 cytoskeleton
Assay: detergent extraction

gp135 remaining (%) with the TX-100 cytoskeleton, 48-h cultures: 66.2%
gp135 remaining (%) with the TX-100 cytoskeleton, 72-h cultures: 53.4%
B1: 135-kD glycoprotein (gp135) (natural protein)
chain: HDGTIIAATSPTSGQPSTELPGGKGLITTAKTIQNTDLAITGEKVMSATVSKGPLPGSSNSVSMTLAPTQKNTVIAPDQDEKVSTNPTIATSDSKGIPDLNKSILPSATNSMKPDTPVTQTAGPGAQGNPGTTVSHMTSENTEQTTSQPPPQVKPSSITPALTSIITPTSPRQPSANSTTLKPPESSSESPDKSHTASSSLGTKVVPSSSLYGTSPTRTSSVTFWGGPQSSSGTPPVPAPTPRPAATSSSTPGISSVPGTTSLPSETESLESPSSESPSQPPKLRPTGPPSSGSSGPAASLPDEGPRSSSTQRAATAPRAPSVPSPTSAQGDDRIKCESPGRLTDKMLLLNLTRSGLCAGNNSDDKLITLLCRAAKATFNPAQDQCHIRLVPIQDTQAVAIKEITVQTNLLPRDVYELLKDKWDELKEVGVSNMKLGDQGPPEETEDRFSMPLIITIVCMASFLLLVAALYGCCHQRLSQRKDQQRLTEELQTVENGYHDNPTLEVMETSSEMQEKKVVNLNGELGDSWIVPLDNLAKDDLDEEEDTHL
